According to publication PMC5803408 (Structure (London, England : 1993), 2018):

T1: human UHRF1 TTD domain (residues 126-284) D142A/E153A (human, UniProt Q96T88 126-284, D142A | E153A)
T1 sequence (looked up): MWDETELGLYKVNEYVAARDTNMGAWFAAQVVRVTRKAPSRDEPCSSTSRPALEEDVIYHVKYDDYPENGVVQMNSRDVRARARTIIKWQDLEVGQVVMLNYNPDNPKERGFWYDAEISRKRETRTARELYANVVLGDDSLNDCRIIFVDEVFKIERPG

T2: human UHRF1 TTD domain (residues 126-284) N194A (human, UniProt Q96T88 126-284, N194A)
T2 sequence (looked up): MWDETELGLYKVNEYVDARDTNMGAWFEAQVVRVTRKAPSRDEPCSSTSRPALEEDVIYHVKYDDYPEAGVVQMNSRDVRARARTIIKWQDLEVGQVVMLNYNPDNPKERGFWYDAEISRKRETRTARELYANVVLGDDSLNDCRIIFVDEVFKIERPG

T3: human UHRF1 TTD-PHD dual domains (residues 126-366) (human, UniProt Q96T88 126-366)
T3 sequence (looked up): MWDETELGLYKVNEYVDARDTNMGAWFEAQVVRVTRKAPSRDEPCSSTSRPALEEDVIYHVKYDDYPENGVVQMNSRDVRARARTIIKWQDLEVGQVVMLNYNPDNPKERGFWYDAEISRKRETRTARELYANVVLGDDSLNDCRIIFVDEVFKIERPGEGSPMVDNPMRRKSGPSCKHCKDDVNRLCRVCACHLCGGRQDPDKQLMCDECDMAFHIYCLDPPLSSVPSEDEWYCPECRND

T4: human UHRF1 TTD domain (residues 126-284) N147A (human, UniProt Q96T88 126-284, N147A)
T4 sequence (looked up): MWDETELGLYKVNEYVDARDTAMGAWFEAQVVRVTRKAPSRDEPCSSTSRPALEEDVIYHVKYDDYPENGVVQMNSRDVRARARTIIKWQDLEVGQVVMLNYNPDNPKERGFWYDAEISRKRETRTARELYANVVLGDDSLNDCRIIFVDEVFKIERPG


Legend:
chromatin = conditions: previous study; ref Zhang et al., 2015; cited from earlier work
[1] = target: T1, human UHRF1 TTD domain (residues …); assay: cell-based or functional assay
[2] = target: T2, human UHRF1 TTD domain (residues …); assay: ITC
[3] = target: T3, human UHRF1 TTD-PHD dual domains …; assay: ITC
[4] = target: T4, human UHRF1 TTD domain (residues …); assay: ITC

FRET ratio of the CFP-UHRF1 (D142A/E153A)-YFP mutant, intramolecular [1] | binding result [2] | fold weaker binding than to TTD [3] [fold] | binding result [4] | Molecule | chromatin binding of UHRF1 with K644E/K646E mutations in PBR (chromatin)
 |  |  |  | K644E/K646E: UHRF1 with K644E/K646E mutations in the PBR sequence (previous study) (protein, UniProt Q96T88 1-793, looked up, variant K644E K646E) E3 ubiquitin-protein ligase …: MWIQVRTMDGRQTHTVDSLSRLTKVEELRRKIQELFHVEPGLQRLFYRGKQMEDGHTLFDYEVRLNDTIQLLVRQSLVLPHSTKERDSELSDTDSGCCLGQSESDKSSTHGEAAAETDSRPADEDMWDETELGLYKVNEYVDARDTNMGAWFEAQVVRVTRKAPSRDEPCSSTSRPALEEDVIYHVKYDDYPENGVVQMNSRDVRARARTIIKWQDLEVGQVVMLNYNPDNPKERGFWYDAEISRKRETRTARELYANVVLGDDSLNDCRIIFVDEVFKIERPGEGSPMVDNPMRRKSGPSCKHCKDDVNRLCRVCACHLCGGRQDPDKQLMCDECDMAFHIYCLDPPLSSVPSEDEWYCPECRNDASEVVLAGERLRESKKKAKMASATSSSQRDWGKGMACVGRTKECTIVPSNHYGPIPGIPVGTMWRFRVQVSESGVHRPHVAGIHGRSNDGAYSLVLAGGYEDDVDHGNFFTYTGSGGRDLSGNKRTAEQSCDQKLTNTNRALALNCFAPINDQEGAEAKDWRSGKPVRVVRNVKGGKNSKYAPAEGNRYDGIYKVVKYWPEKGKSGFLVWRYLLRRDDDEPGPWTKEGKDRIKKLGLTMQYPEGYLEALANREREKENSKREEEEQQEGGFASPRTGEGEWKRKSAGGGPSRAGSPRRTSKKTKVEPYSLTAQQSSLIREDKSNAKLWNEVLASLKDRPASGSPFQLFLSKVEETFQCICCQELVFRPITTVCQHNVCKDCLDRSFRAQVFSCPACRYDLGRSYAMQVNQPLQTVLNQLFPGYGNGR | reduced chromatin binding of UHRF1
0.52 | binds | ~3 | binds | EGGFASPRTGKGKWKRKSAGGGPSRAGSPRRT (peptide, UniProt Q96T88 634-665, looked up) [human UHRF1 PBR peptide (residues 634-665)] | 
